Blank lines part the entries; values can stand above or below the molecule they belong to.
Columns and labels:
[1] = target: AB160 (nanoparticle of albumin-bound paclitaxel and bevacizumab, ratio about 10:4, average size 160 nm) (UniProt P02768); assay: flow cytometry of particles stained with goat anti-mouse IgG and PE
[2] = target: T1, ABRAXANE® / albumin-bound paclitaxel (UniProt P02768 25-609, paclitaxel non-covalently bound); assay: as above
T1 construct: Nanoparticle of many albumin molecules with paclitaxel, not a single polypeptide; also called ABX; Paclitaxel Albumin-stabilized Nanoparticle Formulation

[3] = target: VEGF (UniProt P15692); assay: co-incubation of VEGF with particles, particulate removed, free VEGF in supernatant measured by ELISA
[4] = target: T1, ABRAXANE® / albumin-bound paclitaxel; assay: as above
Method: AB160 was prepared as described and 2000 μg/ml VEGF was added to the AB160 complex or ABX alone. The VEGF was incubated with the nanoparticles for 2 hours at room temperature. The suspension was spun at 6000 rpm for 15 minutes, supernatants were collected and free VEGF was measured by ELISA. Briefly, ELISA plates were coated with capture antibody overnight at 4° C. Plates were washed, blocked and standards and samples were added. After washing, detection antibody was added and plates were developed with substrate (R and D Systems, Minneapolis, MN). Absorbance was measured at 450 nm using a Versamax ELISA plate reader (Molecular Devices, Sunnyvale, CA). The concentration of unbound VEGF was determined with a standard curve from 0 to 2000 μg/ml.

- % positive [1]: 41.2%
- % positive [2]: 6.7%
Molecule: goat anti-mouse IgG (antibody)

- % VEGF unbound [3]: < 10%
Molecule: AB160 (nanoparticle of albumin-bound paclitaxel and bevacizumab, ratio about 10:4, average size 160 nm) (from UniProt P02768 25-609)

- binding result [4]: no binding (tested: 2000 µg/ml VEGF)
B1: VEGF (ligand, UniProt P15692-4 27-191, looked up)
chain: APMAEGGGQNHHEVVKFMDVYQRSYCHPIETLVDIFQEYPDEIEYIFKPSCVPLMRCGGCCNDEGLECVPTEESNITMQIMRIKPHQGQHIGEMSFLQHNKCECRPKKDRARQENPCGPCSERRKHLFVQDPQTCKCSCKNTDSRCKARQLELNERTCRCDKPRR
